Test [1] has as its target oxidized human insulin B chain (human). Nature of the test: cell-based or functional assay.
Another test deals with T1, ADAM9-Fc fusion protein (Mus musculus, UniProt Q61072).
T1 construct: the complete extracellular domain of ADAM9 (aa 1-698); made in house; host or cells: HEK293-EBNA1 cells (pCEP4), purified on Protein A Sepharose
T1 sequence (Q61072 206-698 limits assumed): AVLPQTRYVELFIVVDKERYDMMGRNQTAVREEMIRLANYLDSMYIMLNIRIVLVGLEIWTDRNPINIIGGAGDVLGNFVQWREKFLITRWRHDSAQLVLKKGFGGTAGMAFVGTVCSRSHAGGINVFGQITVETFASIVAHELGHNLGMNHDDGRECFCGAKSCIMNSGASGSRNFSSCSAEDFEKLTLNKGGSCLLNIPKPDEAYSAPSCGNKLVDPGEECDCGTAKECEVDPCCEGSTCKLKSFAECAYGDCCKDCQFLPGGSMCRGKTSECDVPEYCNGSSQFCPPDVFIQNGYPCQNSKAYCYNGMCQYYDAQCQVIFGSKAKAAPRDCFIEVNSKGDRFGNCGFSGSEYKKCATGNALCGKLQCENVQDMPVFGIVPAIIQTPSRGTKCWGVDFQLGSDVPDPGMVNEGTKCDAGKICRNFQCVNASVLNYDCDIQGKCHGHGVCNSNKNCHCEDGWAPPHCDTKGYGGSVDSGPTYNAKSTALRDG
In words: Cleavage of oxidized insulin B chain by soluble ADAM9-Fc (MALDI-TOF). The test is classed as biochemical. The conditions noted are these: 2 mM inhibitor. An excerpt:
The estimated cleavage sites (marked by an ↓), determined by mass spectrometry (MALDI-TOF), are indicated.

Test [2] addresses T2, human CD23b (full length cDNA, expressed on transfected COS or CHO cells) (human) (UniProt P06734).
T2 sequence (looked up): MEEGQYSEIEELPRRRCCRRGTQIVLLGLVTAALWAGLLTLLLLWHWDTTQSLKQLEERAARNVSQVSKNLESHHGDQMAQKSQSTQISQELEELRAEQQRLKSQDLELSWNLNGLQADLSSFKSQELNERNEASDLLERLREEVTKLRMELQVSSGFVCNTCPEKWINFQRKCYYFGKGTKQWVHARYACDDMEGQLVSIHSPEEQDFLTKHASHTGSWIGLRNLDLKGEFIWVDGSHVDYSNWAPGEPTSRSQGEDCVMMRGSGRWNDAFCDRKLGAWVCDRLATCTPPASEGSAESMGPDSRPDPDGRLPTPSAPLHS
In words: cell-based or functional assay.

Test [3] has as its target T2, human CD23b (full length cDNA, expressed on transfected COS or CHO cells) (human). Nature of the test: cell-based or functional assay. The source holds these as a separate data set.

Read-outs that look alike come from different tables or passages of the source.

oxidized human insulin B chain (human), sequence (peptide, as listed by the source): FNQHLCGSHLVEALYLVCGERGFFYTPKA

Consider “soluble ADAM9-Fc fusion protein (ADAM9 aa 1-698 fused to human IgG1 Fc)”, for which the peptide cleavage (MALDI-TOF) (cleavage sites) in test [1] is 2.

`c1cnc2c(c1)ccc1cccnc12` [o-phenanthroline]: the “inhibition of cleavage of the insulin B chain” value against ADAM9-Fc fusion protein is “completely inhibited”.

As to “ADAM9ACT (truncated cytoplasmic domain), transfected into COS cells (from UniProt Q61072 30-845) (enzyme)”, the decrease in surface fluorescence intensity of CD23 (FACS, cotransfected COS cells, 48 h) in test [2] is 35 to 40%.

B1: ADAM9 (full length cDNA, transfected into COS-7 or CHO AA8 cells) (enzyme, murine, UniProt Q61072 30-845, looked up)
chain: GRPDLEQTVHLSSYEIITPWRLTRERREALGPSSQQISYVIQAQGKQHIIHLERNTDLLPNDFVVYTYDKEGSLLSDHPNVQSHCHYRGYVEGVQNSAVAVSACFGLRGLLHLENASFGIEPLHNSSHFEHIFYPMDGIHQEPLRCGVSNRDTEKEGTQGDEEEHPSVTQLLRRRRAVLPQTRYVELFIVVDKERYDMMGRNQTAVREEMIRLANYLDSMYIMLNIRIVLVGLEIWTDRNPINIIGGAGDVLGNFVQWREKFLITRWRHDSAQLVLKKGFGGTAGMAFVGTVCSRSHAGGINVFGQITVETFASIVAHELGHNLGMNHDDGRECFCGAKSCIMNSGASGSRNFSSCSAEDFEKLTLNKGGSCLLNIPKPDEAYSAPSCGNKLVDPGEECDCGTAKECEVDPCCEGSTCKLKSFAECAYGDCCKDCQFLPGGSMCRGKTSECDVPEYCNGSSQFCPPDVFIQNGYPCQNSKAYCYNGMCQYYDAQCQVIFGSKAKAAPRDCFIEVNSKGDRFGNCGFSGSEYKKCATGNALCGKLQCENVQDMPVFGIVPAIIQTPSRGTKCWGVDFQLGSDVPDPGMVNEGTKCDAGKICRNFQCVNASVLNYDCDIQGKCHGHGVCNSNKNCHCEDGWAPPHCDTKGYGGSVDSGPTYNAKSTALRDGLLVFFFLIVPLVAAAIFLFIKRDELRKTFRKKRSQMSDGRNQANVSRQPGDPSISRPPGGPNVSRPPGGPGVSRPPGGPGVSRPPGGPGVSRPPPGHGNRFPVPTYAAKQPAQFPSRPPPPQPKISSQGNLIPARPAPAPPLYSSLT
In test [3], B1 registered an amount of s-CD23 in culture supernatant (ELISA), ADAM9 expression On against Off of 2 to 3 times; a decrease in surface bound CD23 (flow cytometry MFI, CHO clone 3, tetracycline removed) of 40 to 50%; a decrease in surface fluorescence intensity of CD23 (FACS, cotransfected COS cells, 48 h) of 35 to 40%.

These data come from patent US20030091568A1, “Inhibitors for the formation of soluble human CD23” (priority 2000, published 2003).
